The experiment deals with recombinant human VEGF-165 (R&D Systems) (human) (UniProt P15692).
Chain of recombinant human VEGF-165 (R&D Systems) (human) (P15692 other isoform, or with tags, fused parts or gaps limits assumed): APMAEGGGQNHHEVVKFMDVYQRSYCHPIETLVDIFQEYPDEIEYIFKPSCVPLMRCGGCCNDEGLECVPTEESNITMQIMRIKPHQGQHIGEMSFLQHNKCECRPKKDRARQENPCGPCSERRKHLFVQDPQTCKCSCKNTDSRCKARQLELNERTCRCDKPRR

Take Eylea (aflibercept) (Fc fusion): the IC50, inhibition of VEGF-stimulated HuRMVEC proliferation (WST-1, OD450) is 0.683 nM.
